Test results taken from the supplement of paper PMC9170038.

Test system: K4 kissing-loop RNA reporter
Assay: apparent KD of K4 kissing-loop reporter; higher = weaker reporter binding
Settings: Eterna round: R107
Protocol: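 RNA-MaP round R107: designed RNA switches with theophylline, tryptophan, arginine or FMN aptamers are transcribed on-chip within common flanks. They are titrated with a labelled K4 kissing-loop RNA reporter in RNA-MaP buffer (100 mM Tris pH 7.5, 80 mM KCl, 4 mM MgCl2), without ligand or with the indicated ligand. Median apparent KD per design.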

[1] = input ligand: theophylline 20 uM
[2] = input ligand: tryptophan 2.4 mM
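Further: bound reporter read as fluorescence of individual clusters on recovered sequencing chips by microscopy, with normalized cluster intensities fitted with a binding model.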

Sequence | apparent KD of K4 kissing-loop reporter (input ligand: FMN 200 uM) | apparent KD of K4 kissing-loop reporter (input ligand: arginine 13.2 mM) | apparent KD of K4 kissing-loop reporter (input ligand: none) | apparent KD of K4 kissing-loop reporter [1] | apparent KD of K4 kissing-loop reporter [2]
UAAUAAAUUCCAGCGAUAUCGCUCUUCGAAGGAGCGGGCGAAGGUCCAGGUAGGUCGCGGAGAGUGAUGUUCUUUGCGGCGCUGG [whbob_Ex_Arginine_A_2t135] | 216 nM | 225 nM | 239 nM | 226 nM | 273 nM
UAAUAUAACCGAAGGAGCGCGUGGGCGCAGUGAUGUUGCGCCCGACAUCACUUCAACUAAACGCAGGUAGGUCGCGGUAAUAAUA [Arginine B (Excl) V1] | 134 nM | 83.1 nM | 104 nM | 84.2 nM | 98.4 nM
UAAUUUAUGUCUUUAAUUUAAUAAUCAGAUACCAGUGAUUUAUGACACCCUUGGCAGCUGUAUUGAGUGAUGUUCUUAUACUUAA [JR_Nu_ExcTheophyA_Sub021] | 131 nM | 169 nM | 171 nM | 212 nM | 101 nM
UACAAUUUGGCGGCCGCCACUGACCAUAGCCUUCGAUGGCCAGUGAUGUUGGCCUCUGGCUCUAACAGGACCGGGCCAAAUUAUG [Maeste] | 313 nM | 216 nM | 271 nM | 245 nM | 117 nM
UACAUAUAGUUAUUUCUACAUUUAUUUAGUCAGGAUAUCGAUUAGACGAGAAGGGACAAUAUCAAGUGAUGUUUGAUAAUUCAAA [JR_ExcFMNA_Sub011] | 75.7 nM | 111 nM | 68.4 nM | 100 nM | 53.2 nM
UACGUAGAGCGAGGAUAUCCUUCCCACGUCGAAGUACCGUGCUUGAUGGAGUGAUGUUCGAUCAGAGGAGAAGGUGCGAAACGUC [Flavin Switch Lower Fold Energy] | 725 nM | 618 nM | 724 nM | 622 nM | 524 nM
UACUGGGCGAGUGAUGUUCGCUCACGUGAUACCAGUGCCAUCCAACACCCUUGGCAGCACGCGGGCAGUGAUGUUGUCCUUGUAU [Exclusion Theophylline A GF 5] | 127 nM | 112 nM | 123 nM | 129 nM | 111 nM
UAGACCAGUGAUGUUGGUUCCAAGACGGAUACCAGACUGGCAGAAGUCCCUUGGCAGCUGUAGACCUUGUGAGCUACAAGGUCGG [Theo A SS t2] | 923 nM | 184 nM | 440 nM | 170 nM | 295 nM
UAGCGAUGAAGUGAUACCAGAGAGUGAUGUUCUUUUUUUAUUCAGAAUACUGUCGCCUUGCUCCCUUGGCAGCACGCAGGCGCAG [theeternabot_exclusion_KL_Theo_B_18] | 206 nM | 255 nM | 258 nM | 311 nM | 171 nM
UAGCGUCUGCGAGGAUAUCGGAUUAGAGUGAUGUUCUAAAGACGCCCAGUGAUGUUGGAUGCGAUACGAGAAGGCGCUGGGCGCG [Same State FMN B GF7] | 182 nM | 358 nM | 399 nM | 332 nM | 297 nM
UAGGAGUGAUGUUCCAUAUCUUGAGCCGAAGGAGCGCCUUUAUAGGCAGGUAGGUCGCGGCAGAAGGUACCAGUGAUGUUGGAAA [Same State Arginine A GF6] | 147 nM | 147 nM | 164 nM | 145 nM | 135 nM
UAGUCCUAGUGAUCGUUAUCAAGUGGUGGGCGAGGACCGGUACGGCCGCCACUCGACUAUGCAGUGAUGUUGCAAUCCGGACAAU [Exclusion - Tryptophan A (Freestyle 14)] | 209 nM | 238 nM | 222 nM | 254 nM | 213 nM
UAGUCCUAGUGAUGGUUAUCACGUGGUGGGCGAGGACCGGUACGGCCGCCACUCGACUUUGCAGUGAUGUUGCAAUCCGGACAAU [Exclusion - Tryptophan A (Freestyle 17)] | 194 nM | 215 nM | 240 nM | 224 nM | 258 nM
UAUACGCUAGUGAUGUUGGCGAAGACUGAAGGAGCGUGCGAGAGUACAGGUAGGUCGCAGUCAGACAGAUUGUACCUGUCUUAUG [Arg A SS t10] | 268 nM | 243 nM | 295 nM | 349 nM | 356 nM
UAUACUAGACAAGAGAGAAUUCUCUCAAGAGAGGAUAUCCGAAUUCGGAGAAGGCUCUCUCAGUGAUGUUGGGAAUAGUCUAGAA [AK6 SS FMN A] | 150 nM | 151 nM | 188 nM | 229 nM | 177 nM
UAUAUAGUGAUGUUAUAUAUACAUUCGGAAGGAGCGUGGUAAAACACAGGUAGGUCGCUGAAAUAAUUAAAAUAAUUUUCUUUUU [AstrosSSArgA#1] | 255 nM | 231 nM | 279 nM | 239 nM | 231 nM
UAUAUAUGAUGUGAUACCAGUGAAAAGCCAGUGAUGUUGGAAGAACUGGUAUAUAAAUAACACCCUUGGCAGCACAAUCACGUAU [theophylline b exclusion] | 271 nM | 261 nM | 266 nM | 382 nM | 268 nM
